{"source": "patent US10668049B2", "about": "“Methods of treating cognitive decline with transforming growth factor beta inhibitors” (The Regents of the University of California, priority 2008, dated 2020)", "molecular_target": "T1, astrocyte specific glutamate transporter, SLC1A2 (Rattus norvegicus, UniProt P31596)", "T1 construct": "In vitro intracellular recordings were obtained from pyramidal neurons (layer 2-3) 23-28 h following the in vivo treatment; from tissue; host or cells: acute rat neocortical slices (astrocytic transporter; recordings from layer 2-3 pyramidal neurons)", "T1 sequence (P31596 whole entry)": "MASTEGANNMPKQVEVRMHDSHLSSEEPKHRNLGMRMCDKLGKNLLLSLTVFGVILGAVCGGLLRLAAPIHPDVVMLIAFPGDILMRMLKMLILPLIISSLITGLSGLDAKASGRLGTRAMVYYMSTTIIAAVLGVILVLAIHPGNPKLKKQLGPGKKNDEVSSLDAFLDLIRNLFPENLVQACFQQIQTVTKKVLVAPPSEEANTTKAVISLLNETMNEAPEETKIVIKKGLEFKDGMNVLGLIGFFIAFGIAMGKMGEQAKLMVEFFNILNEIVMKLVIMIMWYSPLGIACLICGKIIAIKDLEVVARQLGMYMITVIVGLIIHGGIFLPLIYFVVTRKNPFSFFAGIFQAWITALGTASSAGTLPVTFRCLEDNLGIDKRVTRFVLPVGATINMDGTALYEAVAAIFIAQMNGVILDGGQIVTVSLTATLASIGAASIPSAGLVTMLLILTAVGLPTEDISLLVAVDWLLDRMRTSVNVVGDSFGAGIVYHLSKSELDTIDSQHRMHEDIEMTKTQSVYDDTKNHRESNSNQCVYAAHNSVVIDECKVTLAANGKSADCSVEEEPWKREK", "assay": "Whole cell patch recording of NMDA-mediated EPSCs in cortical pyramidal neurons", "format": "cell-based", "procedure": "In vitro intracellular recordings were obtained from pyramidal neurons (layer 2-3) 23-28 h following the in vivo treatment with albumin or from control rats. Currents were recorded using the whole cell patch configuration, as described previously (Pavlovsky et al., 2003). In brief, glass pipettes were pulled from capillaries using a vertical puller (Narashige, Greenvale, N.Y.) and filled with a solution comprising (in mM): 150 CsCl, 1 MgCl2, 10 HEPES, 4 Na2ATP, 0.1 CaCl2, and 1.1 mM EGTA, pH adjusted to 7.2 with a final osmolarity of 290-310 mOsm. Cells were visualized using infrared differential interference phase contrast video-microscopy. Recordings were performed using AxoPatch 700B (Axon Instruments, Foster City, Calif.), digitized at 10 kHz and recorded using pClamp 9.2 (Axon Instruments, Foster City, Calif.). Patch pipette's resistance was 4-5 MΩ. Series resistance was not electronically compensated; however, cells in which series resistance varied by more than 25% were excluded from the analysis. Stimulation protocols were started at least 5 min following impalement to allow intracellular dialysis with the pipette solution. Excitatory post-synaptic currents (EPSCs) were evoked—using a bipolar stimulating electrode positioned <200 μm from the recorded cell—at 75% of the intensity producing maximal EPSCs. N-methyl-D-aspartic acid (NMDA) currents were recorded in the presence of blockers of α-amino-3-hydroxy-5-methyl-4-isoxazole-propionic acid (AMPA)/kainate (i.e., 30 μM CNQX) and of gamma-aminobutyric acid A (GABAA) receptors (i.e., 10 μM bicuculine methiodide). Cells were voltage clamped to +40 mV to alleviate NMDA receptor blockade and inactivate fast Na^+ currents. In some experiments, dihydrokainic acid (DHK, Tocris, Bristol, UK), 100 μM, was added to the extracellular solution to selectively block the astrocyte specific glutamate transporter, SLC1A2 (see Arriza et al., 1994).\nTo confirm that the transcriptional changes induced by albumin were associated with altered cellular functions, the clearance of extracellular glutamate and potassium in cortical slices 24 hours following albumin treatment in vivo was investigated. To measure synaptic glutamate levels during neuronal activation, the slowly inactivating (Lester et al., 1990) NMDA currents in cortical neurons were recorded by using the whole-cell patch configuration (in the presence of non-NMDA glutamate and GABA receptor blockers, see Methods). Cells were clamped at +40 mV to prevent a potential confounding effect of post-synaptic depolarization due to the accumulation of synaptic [K^+]o. […] Synaptic glutamate elicited by 50 extracellular stimulations at 2, 5, 10, 20, 50 and 100 Hz before and after adding the astrocytic SLC1A2 specific inhibitor, DHK was measured. In neurons from control animals, DHK had no effect on single EPSCs or EPSCs elicited at low stimulation frequencies (<20 Hz). […] The same experiments were then repeated 24 h following cortical application of albumin (i.e. during epileptogenesis). In contrast to the control experiments, DHK had no effect on EPSC amplitude in treated slices (FIG. 13b-c, right), supporting reduced expression of the astrocytic transporter SLC1A2.", "key": {"[1]": {"conditions": "24 h following albumin treatment in vivo, clamped at +40 mV"}}}
{"substance": "albumin: bovine serum albumin, used to induce epileptogenesis", "values": [{"measurement": "Mean single EPSC amplitude", "setting": "[1]", "value": "505±100", "unit": "pA"}, {"measurement": "Mean single EPSC rise-time", "setting": "[1]", "value": "14.5 ± 0.5", "unit": "ms"}, {"measurement": "EPSC amplitude on repetitive stimulation, compared to controls", "setting": "24 h following cortical application of albumin", "value": "stronger depression"}]}
